The supplement of paper PMC12764529
± gives the half width of the 95% confidence interval.

Tests used:
[1] = folding stability dG unfold from trypsin proteolysis; higher = more stable
How it was run: (§1)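 Unfolding free energy was derived, per protease or combined, by relating Bayesian-fitted K50 values from sequencing counts to a sequence-predicted unfolded-state K50 and a shared folded-state K50. The underlying digests exposed cysteine-free mini-proteins under 80 residues, in a PA-tagged cDNA display construct, to trypsin and chymotrypsin at 11 threefold-diluted concentrations and to a no-protease condition. A filter kept only designs with AlphaFold2 dimer inter-PAE above 15.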

[2] = folding stability dG unfold from chymotrypsin proteolysis; higher = more stable
How it was run: as §1

[3] = folding stability dG unfold (combined trypsin and chymotrypsin); higher = more stable
How it was run: as §1

| Sequence | folding stability dG unfold [1] [kcal/mol] | folding stability dG unfold [2] [kcal/mol] | folding stability dG unfold [3] [kcal/mol] |
| --- | --- | --- | --- |
| SIIIQFDNPEEAKENAEDFINEFQDEFGPGQKIPITIHDPGGDPATFPIEIEPPPPPVEYDEENGKLKPDSA [r9_596_TrROS] | 1.13 ± 0.18 | 1.7 ± 0.17 | 1.51 ± 0.43 |
| SAGGSAKIEIPIMIPMPPGQEFDLKIRIPNLWKIKIERIYVSPDPGWIMFRIEIEPVAPPNDPEQMSAGGSA [r15_994_TrROS] | 2.92 ± 0.17 | 3.64 ± 0.071 | 3.34 ± 0.21 |
| SAGSITTTDGNISRSVTYIPGLNLYLVTSTYPTSVSVDLVTEEGGTLTTTPVSTTPLPLPASSLSTTASAGG [r19_328_JUSTAS] | 0.207 ± 0.059 | -0.16 ± 0.15 | 0.0781 ± 0.091 |
| SAGGSAGGSAGGGKLRIKLYHPETGKISEIEVEVPDKPLEEVLEELEKELGVEVVDASLESAGGSAGGSAGG [r7_590_TrMRF] | 0.941 ± 0.054 | 1.68 ± 0.045 | 1.44 ± 0.14 |
| SAGGSAGGSAGGSMSSSSSPLPDEDGLVTRGKSSEPSPPFTWTTTVDSSGVPSTTVTSLESAGGSAGGSAGG [r7_187_JUSTAS] | -0.484 ± 0.1 | 0.602 ± 0.051 | 0.323 ± 0.07 |
| SAGGSAGGGSMSVSYDPSTGNTITTTTTRSPTPLTTTTTTTTFPDGSTSTSTTTTAAPPPAPTTSAGGSAGG [r6_955_JUSTAS] | 0.833 ± 0.029 | 0.716 ± 0.024 | 0.761 ± 0.046 |
| SAGGKIKIKINGKTYTVEDAEIIEVKKNKNGKKEIIIKIKVNGKTYEIVISEEDLKKIKPGDTITLKSAGGS [r16_638_TrROS_Hall] | 2.4 ± 0.053 | 3.19 ± 0.045 | 2.96 ± 0.059 |
| SAGGSAPDDVEVEIKNIHYNPNWGYIMITIKVDGPVDSIEIELPNGWEISVMRDKDGTMTIMFPFPSAGGSA [r15_736_TrROS] | 2.43 ± 0.1 | 3.29 ± 0.18 | 3.15 ± 0.32 |
| SAGGSAGGSAGGMSPGSSSTTVTTTTSPNGTVVTTTTTTTLDPNSNTTSSTTTTTTTTTSAGGSAGGSAGGS [r10_1164_JUSTAS] | 3.15 ± 0.25 | 1.74 ± 0.18 | 2.42 ± 0.25 |
| SAGGNSMTILFIFPENGWIIRITIKFPDGNGKIDDIDIEREPVPNGQVKYTIRMPDGMEISVEIIPLDSAGG [r13_515_TrROS] | 3.99 ± 0.1 | 5.57 ± 0.15 | 5.52 ± 0.33 |
| SAGGSAGGSAGGRKLAIKIEIEEVKTETRIRPDGKTETRTELRIKIEIRPVPHPDDPELLSAGGSAGGSAGG [r7_523_TrROS_Hall] | 2.99 ± 0.12 | 1.95 ± 0.056 | 2.34 ± 0.25 |
| SKFDPDDPGQPVRFTVMIPVPEDAMKNGDLEEVRDKVEEAADMFRPHGMEVKDIEVPPEQGWVMVKFEMPSA [r9_75_TrROS] | -0.824 ± 0.34 | -0.222 ± 0.43 | -0.0605 ± 0.65 |
| SAGGEFRITFMVPADPNDPAVELAKWIADEFMPPGWKVEVDIKVVPSPDGYYMIDIPVEIMPPGQPISAGGS [r16_128_TrROS] | 1.71 ± 0.14 | 2.81 ± 0.047 | 2.49 ± 0.18 |
| SAGGMNISIEPIGRDNDRWYYMITFPGDANEIKDFIEEFLPPGLPIKVKVLEVDPENGHVTVMIEIPRSAGG [r13_491_TrROS] | 2.21 ± 0.042 | 3.58 ± 0.043 | 3.24 ± 0.058 |
| SAGGSAGGSGIEELKKAGFEIVRIERKEDGTLRLTVRNKETEETKTIEITLPEAEVELVEPPESAGGSAGGS [r12_166_TrROS_Hall] | 3.36 ± 0.11 | 3.74 ± 0.076 | 3.57 ± 0.093 |
| SAGGFTIEFPLPPGESPDEIKDEIMDMVRPIADEHGFKNVKIPITNVRWQPPGRRRFTINIEIKFPGSAGGS [r8_184_TrROS] | 0.723 ± 0.16 | 0.465 ± 0.24 | 0.727 ± 0.22 |
| SAGGETVTTESYQPLPTGPGLSFKNVVTTEEDVNNPGVKYTTTEVTAELVNPEGDESTTTTSTVTAASAGGS [r16_217_JUSTAS] | 0.0281 ± 0.035 | 0.00547 ± 0.22 | 0.112 ± 0.14 |
| SMLNPDDPSVPERLVLVIPVPEEAVENGDFEVVRAKVEEAAEELEPLGWRVVSVEFDTETKEARLVLERPSA [r9_75_TrMRF] | 3.76 ± 0.07 | 3.506 ± 0.021 | 3.617 ± 0.032 |
| SAGGSAGGSAGKKPIKEVTITLPPGAKIVKIEIEKTEDGKYILKITVEVDGKLYEFTFELSAGGSAGGSAGG [r11_1013_TrROS_Hall] | 3.13 ± 0.25 | 4.27 ± 0.14 | 3.98 ± 0.29 |
| SAGMKTKTIEETITFTFPPGNPPDLEEIKEKLKSKGVKVLKVEMFEPPGDYYVVTAKVVKELEPSELLSSAG [r5_167_JUSTAS] | 0.934 ± 0.072 | 2.27 ± 0.039 | 1.84 ± 0.13 |
| SAGMPEIVKVKVKIKVNIPVFDKNGKLIGLIPKEYEFEIEAPYEEIKNIIESLPENAEVVEILEIENESAGG [r19_114_TrMRF] | 4.27 ± 0.68 | 2.29 ± 0.29 | 3.29 ± 0.89 |

| Sequence | folding stability dG unfold [1] [kcal/mol] | folding stability dG unfold [2] [kcal/mol] | folding stability dG unfold [3] [kcal/mol] |
| --- | --- | --- | --- |
| SAGGSTITTDVPEARELLEELVKAGIKNIKVTVELDGSTVTLEVPPDELEKLVEEIPPEAKVTLEASSAGGS [r16_636_JUSTAS] | 0.442 ± 0.019 | 1.44 ± 0.041 | 1.12 ± 0.062 |
| SAGGTITIELDGVTIEVRVEEKDGTLTLTAKVYNKDTGEVFEIEITITRKEDGSVTITIKITKIEPLPSAGG [r13_1004_TrROS_Hall] | 2.44 ± 0.16 | 3.96 ± 0.28 | 3.87 ± 0.53 |
| SAGGMEVVEIKYDPETGTVTVTVAIPESLSFDEVAPEVEALVKEKTGRPVEITVDPATGTVTATVPRSAGGS [r8_314_JUSTAS] | 0.832 ± 0.031 | 1.39 ± 0.058 | 1.15 ± 0.072 |
| SAGGSAGGSAGGSKIRLKINMTEEELKELLKKLFPNAKVTRIERKKDGSIYVEIELEPESAGGSAGGSAGGS [r4_95_TrROS_Hall] | 2.94 ± 0.11 | 3.23 ± 0.082 | 3.09 ± 0.11 |
| SAGGSAGGSAGPGLSITTTITTTTPAKLPNGTAPLRTTTTTIITELKPADPNNPVILANTSAGGSAGGSAGG [r11_236_JUSTAS] | 1.05 ± 0.053 | 0.278 ± 0.069 | 0.746 ± 0.048 |
| SAGKVEIVVTYPDGSKAVIDSDNPLVFTITDPDGNSSTISGTGFDEALLKIVELLKEKTGKPVEKVEIKSAG [r5_119_TrMRF] | 0.377 ± 0.098 | 2.168 ± 0.021 | 1.76 ± 0.14 |
| SAGGSMSVEVEVLAKVKLPNGEEVTFPVRVTYNPETGEVTVEIDLPKEVFERLKELYPDGIIAPEPSAGGSA [r2_409_TrMRF] | 2.79 ± 0.11 | 3.5 ± 0.078 | 3.27 ± 0.048 |
| KMEIKIEVEKVKDEETGEEYIEVKIVVKKENVEEALEKVKKILEEEFNYEIVDVKVEKKDDYVVITVKIRLS [r1_337_TrROS_Hall] | 3.15 ± 0.22 | 2.21 ± 0.41 | 2.89 ± 0.53 |
| SAGGGMVITTPQTTSTTFSPPTAPAVPAPFTQSSSFTIGNTKVTVTTTQAAGSGTTTVTLTTILPPLASAGG [r13_998_JUSTAS] | 1 ± 0.034 | 1.18 ± 0.089 | 1.12 ± 0.065 |
| SAPWVYHVRIEYKGPDGEPVAEHTIMVKTPEALKEQIRKHFGLSPAQIKNIEVEPVIPAEEMNEMQEKGSAG [r14_852_TrROS] | 0.204 ± 0.13 | 1.27 ± 0.12 | 0.882 ± 0.094 |
| SAGGSAGGSMNPEVPYAKVTLELKLPDGTTATLTLEVPLEEIPKVIEELKKKGYEILSIKIEPSAGGSAGGS [r12_986_JUSTAS] | 4.17 ± 0.23 | 5.02 ± 0.13 | 5.07 ± 0.27 |
| SAGGSAEWKEKALKMGAKEVKEDPANGYLYVTFPGPGRTIVIWKKEEDGTVTKVKTVSPSVKVEYKSAGGSA [r15_247_JUSTAS] | -0.292 ± 0.41 | 0.817 ± 0.27 | 0.491 ± 0.18 |
| SAGGMTLTLTIKVKTTTVEKDAATGKETVRTETRTLTVTIEAESEEEALAALKKLLEELGFEIVEVTSAGGS [r16_459_TrROS_Hall] | 3.99 ± 0.27 | 5.1 ± 0.22 | 4.89 ± 0.28 |
| SAEPTLAEATNDPATGTATANFPLENLPPDYRVLAVNLETGEVTEFPPDGEVTITAPEGPVLVKLFWKGSAG [r14_134_TrMRF] | 0.608 ± 0.13 | -0.512 ± 0.55 | 0.213 ± 0.15 |
| SAGGSAGGSAGMELTVKVPPDTTPEEVKEKIEKELGLKVKSISVSSFPDGTRTVTITIGPSAGGSAGGSAGG [r17_222_JUSTAS] | 2.45 ± 0.27 | 2.45 ± 0.14 | 2.45 ± 0.21 |
| SAGSMLSVEEVEVTYNNPETGTPATIKLTVPVFYDPVTGRVEVEVEVEPSPEVPEEVAKEIAEKVKEKRSAG [r14_152_JUSTAS] | -1.26 ± 0.95 | 0.494 ± 0.066 | -0.0138 ± 0.35 |
| SAGGSAGGSAGMKIEIELDENGELRIRITVYNKETKEEVEEFEFTLPLEELEEELRKLLESAGGSAGGSAGG [r11_376_TrROS_Hall] | 3.16 ± 0.12 | 3.62 ± 0.15 | 3.5 ± 0.22 |
| SEKTVLSSSTSTSPTSITTTTTVKLPDGSLITTTTTYSSVTAAPTPAPGGTLVPTYSLPTTTTTTTLPPASA [r9_240_JUSTAS] | 0.845 ± 0.025 | 0.309 ± 0.13 | 0.63 ± 0.11 |
| SAGGGSMEEARRLIEEIAEEVKAKGVKVKVRITFGPDPKVLSIEIFSPDEPIVDNGGPGLVTLTFDIPSAGG [r13_693_JUSTAS] | 2.07 ± 0.057 | 2.778 ± 0.023 | 2.55 ± 0.063 |
| SAGGSAGGSAGGIIIPPGAKIVSIEKEGDFVKIKVYIPGSKKIETFKFPKGVPIIFEPEASAGGSAGGSAGG [r11_774_TrMRF] | 3.51 ± 0.28 | 3.24 ± 0.075 | 3.41 ± 0.15 |
| SAGGGIVIPVPAETARELLEKLAPDGADVTVESLGSLGGGEVYRATFTDPVFGNTVDIEVLVGPEGGSAGGS [r16_486_TrMRF] | 0.392 ± 0.028 | 0.301 ± 0.13 | 0.437 ± 0.096 |
